The target in test [1] is T1, Type II PGLYRP2 on HEK293-6E cells (human, UniProt Q96PD5 22-576).
T1 construct: also called hPGLYRP2; PGRP-L
T1 sequence: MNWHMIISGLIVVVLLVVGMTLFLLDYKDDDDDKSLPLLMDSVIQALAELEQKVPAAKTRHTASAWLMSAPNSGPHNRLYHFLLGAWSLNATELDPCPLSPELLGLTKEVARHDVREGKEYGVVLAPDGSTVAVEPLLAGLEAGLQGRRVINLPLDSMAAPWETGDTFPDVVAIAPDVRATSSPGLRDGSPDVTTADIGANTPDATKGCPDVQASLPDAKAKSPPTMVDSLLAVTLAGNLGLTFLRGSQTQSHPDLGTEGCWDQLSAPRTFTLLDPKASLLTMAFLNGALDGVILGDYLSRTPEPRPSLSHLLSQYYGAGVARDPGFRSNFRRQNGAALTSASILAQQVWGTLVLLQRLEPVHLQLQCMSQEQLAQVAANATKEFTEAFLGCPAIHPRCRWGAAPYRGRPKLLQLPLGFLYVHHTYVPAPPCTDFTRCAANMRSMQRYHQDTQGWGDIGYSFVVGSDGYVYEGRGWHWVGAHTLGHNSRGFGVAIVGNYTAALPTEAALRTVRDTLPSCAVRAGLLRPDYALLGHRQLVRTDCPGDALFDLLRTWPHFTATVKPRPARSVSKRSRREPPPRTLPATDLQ
The test can be described thus: flow cytometry on transfected HEK293-6E cells. The protocol:
(§1) 51.2090KZ, BD Biosciences, San Jose Calif., USA) for intracellular staining or 2% FBS/PBS for surface staining: cell pellets were resuspended in a 96-well round bottom plate (to begin with: 160,000 cells/well) with 200 μl cytofix/perm buffer for 15 minutes at 22 C., washed twice with 200 μl 1× PermWash Buffer (diluted 10× in DiH20), stained with 50 μl probe diluted to 5 µg/ml in 1× PermWash buffer, incubated for 1 hour at 4 C., cells were then washed with 200 μl 1× PermWash Buffer, a secondary probe was added in 50 μl 1× PermWash buffer, cells were incubated at 4 C. for 30 minutes, washed twice with 200 μl 1× PermWash Buffer, pellets were resuspended in 50 μl 1:1 PBS diluted CytoFix (BD:554655, San Jose, Calif.), incubated for 5 minutes at 22 C., 150 μl PBS/2% FBS was added, centrifuged for 5 minutes at 300 g, washed 1× with 200 μl PBS/2% FBS and resuspended in 100 μl PBS/2% FBS. Binding was analysed using FACS on LSRII (BD, San Jose Calif., USA).
On the technique in general: A flow cytometer gives signals particle by particle.

Test [2] addresses T2, Type II muPGLYRP1 on HEK293-6E cells (mouse, UniProt O88593 19-182).
T2 construct: whole, on cells; also called mouse PGLYRP1; not shown: Type II membrane anchor; construct is not described in the text
T2 sequence (looked up): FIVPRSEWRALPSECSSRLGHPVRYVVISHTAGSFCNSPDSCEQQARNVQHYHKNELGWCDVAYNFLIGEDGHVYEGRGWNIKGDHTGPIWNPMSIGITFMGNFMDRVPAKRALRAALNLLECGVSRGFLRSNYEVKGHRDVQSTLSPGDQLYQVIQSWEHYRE
The test can be described thus: flow cytometry on transfected HEK293-6E cells. Here is the method:
as §1

In test [3] the target is T3, Type II PGLYRP4 on HEK293-6E cells (human, UniProt Q96LB8 18-373).
T3 construct: also called hPGLYRP4; PGRP-1b
T3 sequence: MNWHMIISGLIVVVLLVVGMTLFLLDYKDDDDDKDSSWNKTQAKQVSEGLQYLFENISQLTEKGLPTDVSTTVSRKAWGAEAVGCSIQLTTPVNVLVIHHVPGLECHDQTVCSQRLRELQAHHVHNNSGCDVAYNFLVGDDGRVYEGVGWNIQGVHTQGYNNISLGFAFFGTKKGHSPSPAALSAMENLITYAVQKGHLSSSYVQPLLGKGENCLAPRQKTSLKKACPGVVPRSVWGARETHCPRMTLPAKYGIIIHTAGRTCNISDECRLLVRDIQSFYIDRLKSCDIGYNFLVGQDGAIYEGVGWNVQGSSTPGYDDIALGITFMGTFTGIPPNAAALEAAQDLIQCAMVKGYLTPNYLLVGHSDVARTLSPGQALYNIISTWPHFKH
The test can be described thus: flow cytometry on transfected HEK293-6E cells. The protocol: as §1

For test [4], the target named is T4, recombinant human PGLYRP1 generated in-house (SEQ ID NO: 1) (human, UniProt O75594 22-196).
T4 sequence: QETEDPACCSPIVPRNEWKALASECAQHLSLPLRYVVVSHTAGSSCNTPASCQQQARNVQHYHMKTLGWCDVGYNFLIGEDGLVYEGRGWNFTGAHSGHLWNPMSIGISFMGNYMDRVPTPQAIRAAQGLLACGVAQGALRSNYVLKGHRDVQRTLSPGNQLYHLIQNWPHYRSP
Kind of test: direct ELISA on PGLYRP1 protein (primary screening of hybridoma supernatants).

The target in test [5] is T5, endogenous human PGLYRP1 (neutrophils; RA synovial fluid) (human, UniProt O75594 22-196).
T5 construct: also called PGRP-S; neutrophil-derived PGLYRP1
T5 sequence (looked up): T4 sequence
The test can be described thus: crosslinking, immunoprecipitation and LC/MS/MS from human neutrophils; CD83-Fc as control bait.

B1: huTREML1.Fc dimer (C0246) (Fc fusion)
chain: QGIVGSLPEVLQAPVGSSILVQCHYRLQDVKAQKVWCRFLPEGCQPLVSSAVDRRAPAGRRTFLTDLGGGLLQVEMVTLQEEDAGEYGCMVDGARGPQILHRVSLNILPPEEEEETHKIGSLAENAFSDPAGSANPLEPSQDEKSIPGTEPKSSDKTHTCPPCPAPEAEGAPSVFLFPPKPKDTLMISRTPEVTCVVVDVSHEDPEVKFNWYVDGVEVHNAKTKPREEQYNSTYRVVSVLTVLHQDWLNGKEYKCKVSNKALPSSIEKTISKAKGQPREPQVYTLPPSREEMTKNQVSLTCLVKGFYPSDIAVEWESNGQPENNYKTTPPVLDSDGSFFLYSKLTVDKSRWQQGNVFSCSVMHEALHNHYTQKSLSLSPGK
notes: Entry may hold the hCD33 leader; code tied by the name of the construct only; also called huTremL1.Fc (C0246); hTREML1-Fc6mut dimer
B1: the “ratio of MFI of probe staining over negative control staining” value (shortened to “ratio of MFI of probe staining”) in test [1], in test [2] and in test [3] was under 1 ratio throughout.

B2: M-hPGRPS-2F7 (antibody, V domains shown)
VH: EVQLQQSGPEVVKPGTSVKMSCKASGYTFTNYVMHWVRQKPGQGLEWVGWINPFNDGTNYNENFKNKATLTSDKSSSTAYMELSSLTSEDSAVYYCARSGFITTLIEDYWGQGTTLTVSS
VL: NIVMTQSPKYMSMSVGERVTLTCKASESVGSFVSWYQQKADQSPNLLIYGASNRYTGVPDRFTGSGSARDFTLTISSVQAKDLAEYYCGQYYTHPTFGAGTKLELKR
notes: Tested as hybridoma supernatant
As to B2, in test [4], the binding result is given as “binds”.

B3: M-hPGRPS-2F5 (antibody, V domains shown)
VH: EVQLVESGGGLVKPGGSLKLSCAASGFSFSDYYMYWVRQTPEKRLEWVAAISDDSTYTYYPDSVKGRFTISRDNAKNNLYLQMSSLKSEDTAMYYCARGGYGNLYAMDYWGQGTSVTVSS
VL: QIVLTQSPAIMSASLGERVTMTCTASSSVSSSYLHWYQQKPGSSPKLWIYSTSNLASGVPARFSGSGSGTSYSLTISSMEAEDAATYYCHQYHRSPFTFGSGTKLEIKR
notes: as for B2
On to B3, for which the binding result in test [4] is listed as “binds”.

B4: huTREM2.Fc dimer (C0248) (Fc fusion)
chain: HNTTVFQGVAGQSLQVSCPYDSMKHWGRRKAWCRQLGEKGPCQRVVSTHNLWLLSFLRRWNGSTAITDDTLGGTLTITLRNLQPHDAGLYQCQSLHGSEADTLRKVLVEVLADPLDHRDAGDLWFPGESESFEDAHVEHSISRSLLEGEIPFPPTSGTEPKSSDKTHTCPPCPAPEAEGAPSVFLFPPKPKDTLMISRTPEVTCVVVDVSHEDPEVKFNWYVDGVEVHNAKTKPREEQYNSTYRVVSVLTVLHQDWLNGKEYKCKVSNKALPSSIEKTISKAKGQPREPQVYTLPPSREEMTKNQVSLTCLVKGFYPSDIAVEWESNGQPENNYKTTPPVLDSDGSFFLYSKLTVDKSRWQQGNVFSCSVMHEALHNHYTQKSLSLSPGK
notes: Entry may hold the hCD33 leader; code tied by the name of the construct only; also called huTrem2.Fc (C0248); hTREM2-Fc6mut dimer
As for B4, the “ratio of MFI of probe staining” value in test [1] and in test [3] was under 1 ratio throughout.

B5: hCD83-G4Sx3-hCD83/Fc6mut (CD83-Fc, hCD83 tetramer) (Fc fusion)
chain: TPEVKVACSEDVDLPCTAPWDPQVPYTVSWVKLLEGGEERMETPQEDHLRGQHYHQKGQNGSFDAPNERPYSLKIRNTTSCNSGTYRCTLQDPDGQRNLSGKVILRVTGCPAQRKEETFKKYRAEGTGGGGSGGGGSGGGGSTPEVKVACSEDVDLPCTAPWDPQVPYTVSWVKLLEGGEERMETPQEDHLRGQHYHQKGQNGSFDAPNERPYSLKIRNTTSCNSGTYRCTLQDPDGQRNLSGKVILRVTGCPAQRKEETFKKYRAEGALAGTEPKSSDKTHTCPPCPAPEAEGAPSVFLFPPKPKDTLMISRTPEVTCVVVDVSHEDPEVKFNWYVDGVEVHNAKTKPREEQYNSTYRVVSVLTVLHQDWLNGKEYKCKVSNKALPSSIEKTISKAKGQPREPQVYTLPPSREEMTKNQVSLTCLVKGFYPSDIAVEWESNGQPENNYKTTPPVLDSDGSFFLYSKLTVDKSRWQQGNVFSCSVMHEALHNHYTQKSLSLSPGK
notes: also called control construct (CD83); control protein
With B5, the binding result in test [5] was “no binding (tested: 100 µg/ml)”.

B6: huTREML2.Fc dimer (C0247) (Fc fusion)
chain: GPSADSVYTKVRLLEGETLSVQCSYKGYKNRVEGKVWCKIRKKKCEPGFARVWVKGPRYLLQDDAQAKVVNITMVALKLQDSGRYWCMRNTSGILYPLMGFQLDVSPAPQTERNIPFTHLDNILKSGTVTTGQAPTSGPDAPFTTGVMVFTPGLITLPRLLASTRPASKTGYSFTATSTTSQGPRRTMGSQTVTASPSNARDSSAGPESISTKSGDLSTRSPTTGLCLTSRSLLNRLPSMPSIRHQDVYSGTEPKSSDKTHTCPPCPAPEAEGAPSVFLFPPKPKDTLMISRTPEVTCVVVDVSHEDPEVKFNWYVDGVEVHNAKTKPREEQYNSTYRVVSVLTVLHQDWLNGKEYKCKVSNKALPSSIEKTISKAKGQPREPQVYTLPPSREEMTKNQVSLTCLVKGFYPSDIAVEWESNGQPENNYKTTPPVLDSDGSFFLYSKLTVDKSRWQQGNVFSCSVMHEALHNHYTQKSLSLSPGK
notes: Entry may hold the hCD33 leader; code tied by the name of the construct only; also called huTremL2.Fc (C0247); hTREML2-Fc6mut dimer
In the case of B6, the “ratio of MFI of probe staining” value in test [1] and in test [3] was under 1 ratio throughout.

The record behind these values is patent US20150018528A1 (Novo Nordisk, published 2015).
